Consider 5 molecules from US20110135636A1 (SYMPHOGEN A S, published 2011).

The target of assay [1] is T1, full length human EGFR expressed on the cell surface (human, UniProt P00533 25-1210).
T1 construct: whole, on cells; also called EGFR on A431-NS cells; EGFR on HN5 cells
In words: cell ELISA, IgG titrated on unfixed A431-NS cells after saturation with Fab 992 and Fab 1030; given as ED50. The protocol:
(§1) Cell ELISA: The ELISA was performed essentially as described in example 15 with modifications. Cells were left unfixed to allow conformational EGFR flexibility after antibody additions. Briefly, 10,000 A431-NS cells were grown in 96 well ELISA plates containing DMEM with added 0.5% FCS and 1% P/S at 37° C., 5% CO₂ overnight. […] 25 μl DMEM containing 1% BSA was added to wells used for testing of IgG antibodies without added Fab fragments. […] Next, wells were washed four times with PBS and 50 μl of a secondary monoclonal Mouse-anti-Human (Fc specific) HRP conjugate diluted 1:5000 in DMEM containing 1% BSA was added and incubated on ice for 30 min. Finally wells were washed four times with PBS and plates developed by adding 50 μl/well TMB substrate and read at 620 nm every 5-15-30 min. After incubation with substrate the reaction was stopped by addition of 1 M H₂SO₄ and absorbance read at 450 nm. The functional affinity expressed as ED50 values were calculated by subtraction of the average background binding with secondary reagent only, followed by normalization of the binding curves by plotting % maximal binding relative to each antibody tested.
(§2) Investigations of antibody induced binding enhancements were determined by concurrent ELISA binding studies, employing same secondary antibody reagent and incubation times.

Assay [2] deals with T1, full length human EGFR expressed on the …. Description: cell ELISA, IgG titrated on unfixed A431-NS cells after saturation with Fab 992; given as ED50. The protocol:
as §1, §2

The target in assay [3] is T2, wild type full length EGFR purified from A431 cells (human, UniProt P00533 25-1210).
T2 construct: mature; Bought; coated on ELISA wells; also called full length EGFR receptor antigen; Sigma E3641
Description: EGF blocking ELISA on coated full length EGFR; blocked ligand biotinylated EGF. The protocol: The next morning wells were washed twice with PBS-T and blocked for one hour with 150 μl PBS-T-1% BSA at room temperature, followed by wash twice in PBS-T. Next 80 μl of serially diluted Anti-EGFR antibodies and control antibodies were added to wells and incubated 30 min at room temperature. […] Subsequently wells were washed five times with PBS-T, followed by incubation with 100 μl/well Streptavidin-HRP secondary reagent diluted 1:1000 in blocking buffer and incubation at room temperature for 30 min. Finally wells were washed five times with PBS-T and plates were developed by adding 100 μl/well TMB substrate and incubated for 60 min. After incubation the reaction was stopped by addition of 1 M H₂SO₄; 100 μl/well and plates were read at OD 450 nm.

The target of assay [4] is T3, Cynomolgus EGFR extracellular domain (Cynomolgus monkey (Macaca fascicularis), UniProt P55245 25-645 (rhesus entry)).
T3 construct: Cloned without signal peptide; also called Cynomolgus rEGFR ECD; Cynomolgus EGFR ECD
In words: ELISA on coated Cynomolgus rEGFR ECD. The protocol: To verify that tested Anti-EGFR antibodies bound equally well to both Human and Cynomolgus EGFR ECD and accordingly warranting toxicology studies in Cynomolgus monkeys, serial four fold dilutions of antibodies beginning from 1 μg/ml were tested by ELISA for binding to recombinant Human and Cynomolgus EGFR ECD proteins. […] ELISA wells were coated with 50 μl/well of full length EGFR at a concentration of 1 μg/ml in PBS overnight at 4° C. The next morning wells were washed twice with PBS-T and blocked for one hour with 100 μl PBS-T-1% BSA at room temperature, followed by wash twice in PBS-T. Next 50 μl of serially diluted Anti-EGFR antibodies and control antibodies were added to wells and incubated for one hour at room temperature. After antibody incubation wells were washed five times with PBS-T, followed by incubation with 50 μl/well Streptavidin-HRP secondary reagent diluted 1:3000 in blocking buffer and incubation at room temperature for 30 min. Finally wells were washed five times with PBS-T and plates were developed by adding 50 μL/well TMB substrate and incubated at room temperature. After incubation the reaction was stopped by addition of 1 M H₂SO₄; 100 μl/well and plates were read at OD 450 nm.

Assay [5] concerns the target T1, full length human EGFR expressed on the …. Description: cell ELISA, IgG titrated on unfixed A431-NS cells after saturation with Fab 992 and Fab 1024; given as ED50. As for the experimental part: as §1, §2
For assay [6] the target is unchanged. Description: cell ELISA, IgG titrated on unfixed A431-NS cells after saturation with Fab 1024 and Fab 1030; given as ED50. As for the experimental part:
as §1, §2

In assay [7] the target is T4, recombinant human EGFR extracellular domain with 6xHis (human, UniProt P00533 25-645).
T4 construct: In-house produced; also called 6xHis EGFR ECD; soluble human EGFR ECD; not shown: 6xHis tag
In words: SPR (BIAcore 2000); IgG captured on anti-human Fc, soluble EGFR ECD injected; Scatchard analysis. The protocol: Kinetic analysis of the full length IgG antibodies of the invention was performed on a BIAcore 2000, employing an assay as described in (Canziani, Klakamp, et al. 2004, Anal. Biochem, 325:301-307) allowing measurement of monovalent affinities of whole IgG molecules against soluble antigen. […] The chip surface was regenerated in between cycles by stripping the captured antibody/antigen complexes with a 10 second injection of 100 mM H₃PO₄. […] The association rate constant (ka) and dissociation constant (kd) were evaluated globally from the generated sensograms with the BIA evaluation software 4.1 provided by the manufacturer.

Assay [8] addresses T1, full length human EGFR expressed on the …. In words: cell ELISA, IgG titrated on unfixed A431-NS cells after saturation with Fab 1024; given as ED50. As for the experimental part: as §1, §2
Assay [9] shares this target. Description: cell ELISA, IgG titrated on unfixed A431-NS cells after saturation with Fab 1030; given as ED50. The protocol:
as §1, §2

B1: antibody 1024 (antibody, human IgG1, kappa, V domains shown)
VH: QVQLQQPGAELVEPGGSVKLSCKASGYTFTSHWMHWVKQRPGQGLEWIGEINPSSGRNNYNEKFKSKATLTVDKSSSTAYMQFSSLTSEDSAVYYCVRYYGYDEAMDYWGQGTSVTVSS
VL: DIVMTQAAFSNPVTLGTSASISCRSSKSLLHSNGITYLYWYLQKPGQSPQLLIYQMSNLASGVPDRFSSSGSGTDFTLRISRVEAEDVGVYYCAQNLELPYTFGGGTKLEIKR
notes: Chimeric IgG1 kappa
B1: the EC50 in [1] is 0.8 nM; in assay [2], 0.9 nM.

B2: antibody 1260 (antibody, human IgG1, kappa, V domains shown)
VH: QVQLKESGPGLVAPSQSLSITCTVSGFSLTTYGVHWVRQPPGKGLEWLGVIWAGGSTNYNSALMSRLSIKKDNSKSQVFLKMNSLQTDDTAMYYCARAYGYNFDYWGQGTTLTVSS
VL: DIQMTQTTSSLSASLGDRVTISCSASQGITNYLNWYQQKPDGTVKLLIYYSSSLHSGVPSRFSGSGSGTDYSLTISNLEPEDIATYYCQQYSEIPYTFGGGTKLELKR
notes: Chimeric IgG1 kappa
Consider B2, for which the “IC50 (read off the curve)” value in assay [3] was approximately 50 ng mAb/ml.

B3: antibody 1208 (antibody, human IgG1, kappa, V domains shown)
VH: EVQLVESGGGLVKPGGSLKLSCAASGFAFSSYDMSWVRQTPEKRLEWVAYIGSGDDNTHYPDSVKGRFTISRHNAKNTLYLQMSSLKSEDTAMYYCARQKYGNYGDTMDYWGQGTSVTVSS
VL: DVVMTQTPLSLPVSLGDQASISCRSSQSLVHSNGNTYLHWYLQKPGQSPKLLIYKVSNRFSGVPDRFSGSGSGTDFTLKISRVEAEDLGVYFCSQSTHVPTFGGGTKLEIKR
notes: Chimeric IgG1 kappa; also called clone 1208
Take B3: the “IC50 (read off the curve)” value in [3] is approximately 20 ng mAb/ml. In addition, the binding result in [4] was “binds”.

B4: antibody 1030 (antibody, human IgG1, kappa, V domains shown)
VH: EVQLVESGGGLVKPGGSLKLSCAASGFTFSSYALSWVRQTPERRLEWVASISGVGSTYFPDSVKGRFTMSRDNARNILYLQMSSLRSEDTAMYYCARGSDGYFYAMDYWGQGTSVTVSS
VL: DIVLTQSPASLAVSLGQRATISCRASKSVSTSGYSFMHWYQLKPGQPPKLLIYLASNLESGVPARFSGSGSGTDFTLNIHPVEEEDAATYYCQHSREFPLTFGGGTKLEIKR
notes: Chimeric IgG1 kappa
Take B4: the EC50 came out at 1.6 nM in assay [2] and 2.2 nM in assay [5].

B5: antibody 992 (antibody, human IgG1, kappa, V domains shown)
VH: EVQLQQPGSELVRPGASVKLSCKASGYTFTSYWMHWVKQRPGQGLEWIGNIYPGSRSTNYDEKFKSKATLTVDTSSSTAYMQLSSLTSEDSAVYYCTRNGDYYVSSGDAMDYWGQGTSVTVSS
VL: DIQMTQTTSSLSASLGDRVTISCRTSQDIGNYLNWYQQKPDGTVKLLIYYTSRLHSGVPSRFSGSGSGTDFSLTINNVEQEDVATYFCQHYNTVPPTFGGGTKLEIKR
notes: Chimeric mouse/human IgG1 kappa; the VL entry includes the human kappa constant region
For the molecule B5, the EC50 in assay [6] worked out at 0.5 nM; in assay [8] it was 0.5 nM; in assay [9], 0.4 nM. Moreover, the Kd in [7] stood at 170 nM.
